Test results reported in the supplement of paper PMC9112550, “Optimization of the antimicrobial peptide Bac7 by deep mutational scanning” (BMC Biology, 2022).

System: Escherichia coli TOP10
Experiment: shrunken log2 fold change of peptide-encoding DNA abundance (4.5 h post-induction vs induction); higher = less antimicrobial activity (less host growth inhibition)
Conditions: time post-induction: 4.5 h; library: site-saturation at positions 5, 18, 19, 20
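Also: peptides expressed intracellularly from a pBAD plasmid library in pooled LB shake-flask culture, induced with 0.3% L-arabinose, DNA abundance read by NGS, three biological replicates, DESeq2 with apeglm shrinkage.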

RRIRERPPRLPRPRPRPGCQPRP
shrunken log2 fold change: 0.0111

RRIRMRPPRLPRPRPRPENLPRP
shrunken log2 fold change: -0.00111

RRIRPRPPRLPRPRPRPMMTPRP
shrunken log2 fold change: -0.146

RRIRCRPPRLPRPRPRPCRIPRP
shrunken log2 fold change: -0.271

RRIRCRPPRLPRPRPRPVIDPRP
shrunken log2 fold change: 0.136

RRIRVRPPRLPRPRPRPVFQPRP
shrunken log2 fold change: -0.092

RRIRDRPPRLPRPRPRPEWTPRP
shrunken log2 fold change: 0.147

RRIRDRPPRLPRPRPRPDPTPRP
shrunken log2 fold change: 0.0932

RRIRQRPPRLPRPRPRPSFHPRP
shrunken log2 fold change: -0.351

RRIRERPPRLPRPRPRPVYLPRP
shrunken log2 fold change: -0.267

RRIRARPPRLPRPRPRPLPQPRP
shrunken log2 fold change: 0.64

RRIRQRPPRLPRPRPRPCRCPRP
shrunken log2 fold change: -0.0134

RRIRERPPRLPRPRPRPGMNPRP
shrunken log2 fold change: -0.308

RRIRPRPPRLPRPRPRPKFYPRP
shrunken log2 fold change: -0.351

RRIRGRPPRLPRPRPRPQMRPRP
shrunken log2 fold change: 0.899

RRIRLRPPRLPRPRPRPLRYPRP
shrunken log2 fold change: -0.0797

RRIRMRPPRLPRPRPRPSEMPRP
shrunken log2 fold change: 0.185

RRIRKRPPRLPRPRPRPLNEPRP
shrunken log2 fold change: 0.0114

RRIRDRPPRLPRPRPRPMQMPRP
shrunken log2 fold change: 0.467

RRIRWRPPRLPRPRPRPHTFPRP
shrunken log2 fold change: -0.0424

RRIRVRPPRLPRPRPRPQKEPRP
shrunken log2 fold change: -0.178

RRIRWRPPRLPRPRPRPPHPPRP
shrunken log2 fold change: 0.373

RRIRIRPPRLPRPRPRPPFWPRP
shrunken log2 fold change: 0.288

RRIRGRPPRLPRPRPRPCRPPRP
shrunken log2 fold change: -0.04

RRIRARPPRLPRPRPRPLWTPRP
shrunken log2 fold change: 0.115

RRIRGRPPRLPRPRPRPRTKPRP
shrunken log2 fold change: 0.942

RRIRERPPRLPRPRPRPMKPPRP
shrunken log2 fold change: -0.0018

RRIRFRPPRLPRPRPRPPSTPRP
shrunken log2 fold change: 0.342

RRIRPRPPRLPRPRPRPQMNPRP
shrunken log2 fold change: -0.267

RRIRYRPPRLPRPRPRPPQEPRP
shrunken log2 fold change: 1.9

RRIRTRPPRLPRPRPRPYSPPRP
shrunken log2 fold change: -0.226

RRIRARPPRLPRPRPRPKCHPRP
shrunken log2 fold change: 0.161

RRIRMRPPRLPRPRPRPAIFPRP
shrunken log2 fold change: 0.243

RRIRQRPPRLPRPRPRPLIRPRP
shrunken log2 fold change: -0.966

RRIRDRPPRLPRPRPRPPHRPRP
shrunken log2 fold change: 0.195

RRIRFRPPRLPRPRPRPWRVPRP
shrunken log2 fold change: 0.0748

RRIRWRPPRLPRPRPRPAYFPRP
shrunken log2 fold change: 0.125

RRIRWRPPRLPRPRPRPFARPRP
shrunken log2 fold change: 0.188

RRIRVRPPRLPRPRPRPRLFPRP
shrunken log2 fold change: 0.447

RRIRQRPPRLPRPRPRPSADPRP
shrunken log2 fold change: 0.354

RRIRVRPPRLPRPRPRPDAGPRP
shrunken log2 fold change: 0.13

RRIRQRPPRLPRPRPRPKVPPRP
shrunken log2 fold change: 0.105

RRIRGRPPRLPRPRPRPLIVPRP
shrunken log2 fold change: 0.274

RRIRMRPPRLPRPRPRPGDNPRP
shrunken log2 fold change: -0.00193

RRIRKRPPRLPRPRPRPPGMPRP
shrunken log2 fold change: 0.473

RRIRSRPPRLPRPRPRPKASPRP
shrunken log2 fold change: -0.0199

RRIRFRPPRLPRPRPRPDHVPRP
shrunken log2 fold change: 0.0266

RRIRDRPPRLPRPRPRPKICPRP
shrunken log2 fold change: 0.0258

RRIRARPPRLPRPRPRPPIVPRP
shrunken log2 fold change: -0.0791

RRIRFRPPRLPRPRPRPKEAPRP
shrunken log2 fold change: 0.084

RRIRGRPPRLPRPRPRPSDFPRP
shrunken log2 fold change: 0.0231

RRIRFRPPRLPRPRPRPTTKPRP
shrunken log2 fold change: -0.167

RRIRTRPPRLPRPRPRPKALPRP
shrunken log2 fold change: 0.293

RRIRARPPRLPRPRPRPRKPPRP
shrunken log2 fold change: 0.114

RRIRYRPPRLPRPRPRPQWQPRP
shrunken log2 fold change: -0.00114

RRIRTRPPRLPRPRPRPDIQPRP
shrunken log2 fold change: -0.531

RRIRWRPPRLPRPRPRPYFYPRP
shrunken log2 fold change: -0.679

RRIRNRPPRLPRPRPRPRYPPRP
shrunken log2 fold change: -0.121

RRIRCRPPRLPRPRPRPDVWPRP
shrunken log2 fold change: 0.198

RRIRARPPRLPRPRPRPYICPRP
shrunken log2 fold change: -0.326

RRIRHRPPRLPRPRPRPELEPRP
shrunken log2 fold change: -0.0141

RRIRLRPPRLPRPRPRPDANPRP
shrunken log2 fold change: 0.0586

RRIRTRPPRLPRPRPRPCPNPRP
shrunken log2 fold change: -0.000921

RRIRFRPPRLPRPRPRPWIRPRP
shrunken log2 fold change: -0.205

RRIRLRPPRLPRPRPRPCTQPRP
shrunken log2 fold change: -0.174

RRIRGRPPRLPRPRPRPQEEPRP
shrunken log2 fold change: 0.0943

RRIRARPPRLPRPRPRPMGGPRP
shrunken log2 fold change: 0.0776

RRIRARPPRLPRPRPRPNPPPRP
shrunken log2 fold change: 0.458

RRIRDRPPRLPRPRPRPFAPPRP
shrunken log2 fold change: 0.318

RRIRNRPPRLPRPRPRPGYVPRP
shrunken log2 fold change: -0.077

RRIRDRPPRLPRPRPRPKFRPRP
shrunken log2 fold change: 0.152

RRIRCRPPRLPRPRPRPKYSPRP
shrunken log2 fold change: -0.898

RRIRPRPPRLPRPRPRPRFWPRP
shrunken log2 fold change: 0.579

RRIRIRPPRLPRPRPRPQVPPRP
shrunken log2 fold change: 0.00863

RRIRKRPPRLPRPRPRPPEMPRP
shrunken log2 fold change: 0.262

RRIRIRPPRLPRPRPRPMELPRP
shrunken log2 fold change: -0.000689

RRIRARPPRLPRPRPRPWSYPRP
shrunken log2 fold change: -0.0574

RRIRIRPPRLPRPRPRPQMMPRP
shrunken log2 fold change: -0.622

RRIRPRPPRLPRPRPRPVHSPRP
shrunken log2 fold change: 0.127

RRIRTRPPRLPRPRPRPVKFPRP
shrunken log2 fold change: -0.0819

RRIRDRPPRLPRPRPRPLAMPRP
shrunken log2 fold change: 0.767

RRIRKRPPRLPRPRPRPLTYPRP
shrunken log2 fold change: 0.0522

RRIRQRPPRLPRPRPRPNDCPRP
shrunken log2 fold change: 0.0531

RRIRPRPPRLPRPRPRPRQHPRP
shrunken log2 fold change: 0.182

RRIRFRPPRLPRPRPRPPHWPRP
shrunken log2 fold change: 0.617

RRIRWRPPRLPRPRPRPWTAPRP
shrunken log2 fold change: 0.306

RRIRLRPPRLPRPRPRPYEQPRP
shrunken log2 fold change: -0.104

RRIRGRPPRLPRPRPRPSVRPRP
shrunken log2 fold change: 0.529

RRIRDRPPRLPRPRPRPALKPRP
shrunken log2 fold change: 0.407

RRIRTRPPRLPRPRPRPAHQPRP
shrunken log2 fold change: 3.43

RRIRIRPPRLPRPRPRPVEAPRP
shrunken log2 fold change: -0.205

RRIRNRPPRLPRPRPRPPGDPRP
shrunken log2 fold change: 0.127

RRIRNRPPRLPRPRPRPTLNPRP
shrunken log2 fold change: -0.105

RRIRFRPPRLPRPRPRPQWYPRP
shrunken log2 fold change: -0.981

RRIRFRPPRLPRPRPRPEDVPRP
shrunken log2 fold change: -0.0294

RRIRLRPPRLPRPRPRPQSCPRP
shrunken log2 fold change: 0.123

RRIRNRPPRLPRPRPRPIHPPRP
shrunken log2 fold change: 0.135

RRIRARPPRLPRPRPRPETKPRP
shrunken log2 fold change: 1.27

RRIRYRPPRLPRPRPRPYCPPRP
shrunken log2 fold change: -0.848

RRIRRRPPRLPRPRPRPQCIPRP
shrunken log2 fold change: -0.0103

RRIRARPPRLPRPRPRPAWQPRP
shrunken log2 fold change: 0.626

RRIRWRPPRLPRPRPRPKYMPRP
shrunken log2 fold change: -0.501

RRIRDRPPRLPRPRPRPEPYPRP
shrunken log2 fold change: 0.118

RRIRDRPPRLPRPRPRPSVEPRP
shrunken log2 fold change: 1.45

RRIRQRPPRLPRPRPRPHYLPRP
shrunken log2 fold change: -0.0046

RRIRERPPRLPRPRPRPNYTPRP
shrunken log2 fold change: -0.773

RRIRVRPPRLPRPRPRPEKTPRP
shrunken log2 fold change: 0.0303

RRIRGRPPRLPRPRPRPKTPPRP
shrunken log2 fold change: 1.73

RRIRWRPPRLPRPRPRPHKRPRP
shrunken log2 fold change: 0.0239

RRIRIRPPRLPRPRPRPLNMPRP
shrunken log2 fold change: -0.528

RRIRVRPPRLPRPRPRPLYDPRP
shrunken log2 fold change: -0.257

RRIRDRPPRLPRPRPRPLEIPRP
shrunken log2 fold change: 0.287

RRIRRRPPRLPRPRPRPCSSPRP
shrunken log2 fold change: 0.0589

RRIRGRPPRLPRPRPRPMIWPRP
shrunken log2 fold change: 0.589

RRIRMRPPRLPRPRPRPDYAPRP
shrunken log2 fold change: 0.263

RRIRARPPRLPRPRPRPCQPPRP
shrunken log2 fold change: -0.0379

RRIRSRPPRLPRPRPRPHNPPRP
shrunken log2 fold change: -0.531

RRIRERPPRLPRPRPRPIYNPRP
shrunken log2 fold change: -0.85

RRIRTRPPRLPRPRPRPHCQPRP
shrunken log2 fold change: -0.359

RRIRQRPPRLPRPRPRPYCTPRP
shrunken log2 fold change: -0.863

RRIRGRPPRLPRPRPRPGLEPRP
shrunken log2 fold change: 1.1

RRIRSRPPRLPRPRPRPALQPRP
shrunken log2 fold change: 0.441

RRIRDRPPRLPRPRPRPLGRPRP
shrunken log2 fold change: 0.0897

RRIRVRPPRLPRPRPRPQQCPRP
shrunken log2 fold change: 0.145

RRIRMRPPRLPRPRPRPWFQPRP
shrunken log2 fold change: 0.134

RRIRFRPPRLPRPRPRPWKKPRP
shrunken log2 fold change: -0.00973

RRIRTRPPRLPRPRPRPNQYPRP
shrunken log2 fold change: -0.446

RRIRQRPPRLPRPRPRPDRVPRP
shrunken log2 fold change: 0.00438

RRIRQRPPRLPRPRPRPSHKPRP
shrunken log2 fold change: -0.0927

RRIRSRPPRLPRPRPRPDTMPRP
shrunken log2 fold change: -0.462

RRIRKRPPRLPRPRPRPPMSPRP
shrunken log2 fold change: 0.328

RRIRDRPPRLPRPRPRPALTPRP
shrunken log2 fold change: 0.468

RRIRARPPRLPRPRPRPAVIPRP
shrunken log2 fold change: -0.178

RRIRPRPPRLPRPRPRPMHNPRP
shrunken log2 fold change: -0.202

RRIRARPPRLPRPRPRPATCPRP
shrunken log2 fold change: 0.03

RRIRCRPPRLPRPRPRPGPCPRP
shrunken log2 fold change: 0.0993

RRIRRRPPRLPRPRPRPWKHPRP
shrunken log2 fold change: -0.167

RRIRIRPPRLPRPRPRPLCAPRP
shrunken log2 fold change: -0.183

RRIRRRPPRLPRPRPRPHSSPRP
shrunken log2 fold change: -0.00646

RRIRSRPPRLPRPRPRPWSMPRP
shrunken log2 fold change: -0.176

RRIRDRPPRLPRPRPRPCTWPRP
shrunken log2 fold change: 0.0101

RRIRQRPPRLPRPRPRPSGTPRP
shrunken log2 fold change: 0.0732

RRIRSRPPRLPRPRPRPQWSPRP
shrunken log2 fold change: -0.176

RRIRWRPPRLPRPRPRPRTNPRP
shrunken log2 fold change: 0.0699

RRIRARPPRLPRPRPRPPEMPRP
shrunken log2 fold change: 0.515

RRIRERPPRLPRPRPRPDICPRP
shrunken log2 fold change: -0.553

RRIRNRPPRLPRPRPRPCTEPRP
shrunken log2 fold change: -0.347

RRIRWRPPRLPRPRPRPFRTPRP
shrunken log2 fold change: -0.16

RRIRHRPPRLPRPRPRPLCLPRP
shrunken log2 fold change: -0.368

RRIRLRPPRLPRPRPRPCVTPRP
shrunken log2 fold change: -0.498
